The results in this text go back to the RNAGym collection of RNA variant scans (doi:10.1093/molbev/msab373).

The chains are these.
B1: Azoarcus group I ribozyme (parent)
chain: GUGCCUUGCGCCGGGAAACCACGCAAGGGAUGGUGUCAAAUUCGGCGAAACCUAAGCGCCCGCCCGGGCGUAUGGCAACGCCGAGCCAAGCUUCGGCGCCUGCGCCGAUGAAGGUGUAGAGACUAGACGGCACCCACCUAAGGCAAACGCUAUGGUGAAGGCAUAGUCCAGGGAGUGGCGAAAGUCACACAAACCGG

This data set covers variants of B1. The experiment in a line: reverse-splicing fitness (ratio to wild type); higher = more active; in vitro selection; Mg2+ level not given. An outline of the steps:
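An in vitro group I ribozyme library with randomized positions was T7-transcribed and gel-purified. In triplicate, 10 pmol RNA in EPPS pH 7.5 was reacted with 50 pmoles of a 30-nt RNA substrate for 1 h at 37 °C across several added MgCl2 levels (1–48 mM), then stopped with EDTA. Products were reverse transcribed from a substrate-complementary primer, PCR-amplified and sequenced (HiSeq 4000). Fitness is a variant's read proportion after selection over that before, normalised to wild type.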
For the variant C82U A111C A120U A145U C169A, the reverse-splicing fitness is 0.00238.
Turning to C82U A111C A145U C150U C169A U176G, the reverse-splicing fitness was found to be 0.00765.
As to C82U A111C A145U C150U C169A U176C, the reverse-splicing fitness turned out to be 0.011.
On to C82U A111C A145U C150U C169A U176A, for which the reverse-splicing fitness amounted to 0.0126.
As to C82U A111C A145U C150U U176A, the reverse-splicing fitness amounted to 0.0489.
With C82U A111C A145U C150U U176G, the reverse-splicing fitness came out at 0.0152.
C82U A111C A145U C150U U176C: the reverse-splicing fitness is 0.0704.
Turning to C82U A111C A120U A145U U176G, the reverse-splicing fitness came to 0.00361.
Consider C82U A111C A120U A145U U176C, for which the reverse-splicing fitness is 0.0113.
For C82U A111C A120U A145U U176A, the reverse-splicing fitness worked out at 0.00693.
Consider C82U A111C A145G C150U U176A, for which the reverse-splicing fitness stood at 0.0576.
As for C82U A111C A145G C150U U176G, the reverse-splicing fitness came to 0.0161.
As for C82U A111C A145G C150U U176C, the reverse-splicing fitness is 0.085.
For C82U A111C A120U A145U C150U C169U U176A, the reverse-splicing fitness amounted to 0.00267.
In the case of C82U A111C A120U A145U C150U C169U U176C, the reverse-splicing fitness was 0.003.
For C82U A111C A120U A145U C150U C169U U176G, the reverse-splicing fitness was 0.00223.
Next, C82U A111C A145G C150U C169U U176G: 0.00645; C82U A111C A145G C150U C169U U176C: 0.0121; C82U A111C A145G C150U C169U U176A: 0.0144.
As to C82U A111C A120U C150G C169A U176G, the reverse-splicing fitness was determined as 0.00261.
Turning to C82U A111C A120U C150G C169A U176C, the reverse-splicing fitness came to 0.00467.
As to C82U A111C A120U C150G C169A U176A, the reverse-splicing fitness was found to be 0.00624.
C82U A111C A145U C150A C169U U176C: the reverse-splicing fitness is 0.013.
Then C82U A111C A145U C150A C169U U176A, with 0.0193; and C82U A111C A145U C150A C169U U176G, with 0.00805; and C82U A111C A145G C169A U176C, with 0.0298.
On to C82U A111C A145G C169A U176G, for which the reverse-splicing fitness is 0.00741.
Consider C82U A111C A145G C169A U176A, for which the reverse-splicing fitness was found to be 0.0231.
Then C82U A111C A120U A145U C150A C169U, with 0.00262; and C82U A111C A120U A145U C150A C169G, with 0.00265.
Consider C82U A111C A120U A145U C150A C169A, for which the reverse-splicing fitness turned out to be 0.00298.
As to C82U A111C A120U A145U C150A C169U U176C, the reverse-splicing fitness was 0.00256.
Take C82U A111C A120U A145U C150A C169U U176G: the reverse-splicing fitness was 0.00245.
In the case of C82U A111C A120U A145U C150A C169U U176A, the reverse-splicing fitness is 0.00365.
Turning to C82U A111C A145C C150G C169G U176C, the reverse-splicing fitness came to 0.00811.
With C82U A111C A145C C150G C169G U176A, the reverse-splicing fitness is 0.00798.
Then C82U A111C A145C C150G C169G U176G, with 0.0058; and C82U A111C A120U C169U U176G, with 0.00178.
Turning to C82U A111C A120U C169U U176A, the reverse-splicing fitness was 0.0057.
Take C82U A111C A120U C169U U176C: the reverse-splicing fitness came to 0.00419.
As for C82U A111C A145U C150G U176G, the reverse-splicing fitness came out at 0.00446.
In the case of C82U A111C A145U C150G U176C, the reverse-splicing fitness is 0.0156.
For the variant C82U A111C A145U C150G U176A, the reverse-splicing fitness was 0.0108.
C82U A111C A120U A145U C169U U176A: the reverse-splicing fitness was found to be 0.00256.
Take C82U A111C A120U A145U C169U U176G: the reverse-splicing fitness came to 0.00166.
Next, C82U A111C A120U A145U C169U U176C: 0.00255.
C82U A111C A145U C150U C169U U176G: the reverse-splicing fitness is 0.00669.
Then C82U A111C A145U C150U C169U U176C, with 0.0136.
In the case of C82U A111C A145U C150U C169U U176A, the reverse-splicing fitness came to 0.0154.
Then C82U A111C A120U C169G U176G, with 0.00177.
Take C82U A111C A120U C169G U176A: the reverse-splicing fitness was found to be 0.0032.
As to C82U A111C A120U C169G U176C, the reverse-splicing fitness came out at 0.0039.
For C82U A111C A145G C150A U176C, the reverse-splicing fitness was found to be 0.0313.
Regarding C82U A111C A145G C150A U176G, the reverse-splicing fitness was found to be 0.00984.
On to C82U A111C A145G C150A U176A, for which the reverse-splicing fitness stood at 0.0169.
Consider C82U A111C A145C C150G U176G, for which the reverse-splicing fitness turned out to be 0.00264.
Take C82U A111C A145C C150G U176C: the reverse-splicing fitness was 0.0151.
Regarding C82U A111C A145C C150G U176A, the reverse-splicing fitness came to 0.00961.
For the variant C82U A111C A145C C169G U176A, the reverse-splicing fitness came out at 0.0274.
Then C82U A111C A145C C169G U176C, with 0.0207; and C82U A111C A145C C169G U176G, with 0.00669; and C82U A111C A120U C150U C169G U176A, with 0.00387.
On to C82U A111C A120U C150U C169G U176C, for which the reverse-splicing fitness turned out to be 0.00314.
C82U A111C A120U C150U C169G U176G: the reverse-splicing fitness was 0.00228.
Next, C82U A111C A145U C150A C169A U176A: 0.0124; C82U A111C A145U C150A C169A U176G: 0.00756.
C82U A111C A145U C150A C169A U176C: the reverse-splicing fitness amounted to 0.0128.
Regarding C82U A111C A145U C150A C169G U176A, the reverse-splicing fitness was 0.0138.
For the variant C82U A111C A145U C150A C169G U176C, the reverse-splicing fitness is 0.0178.
Turning to C82U A111C A145U C150A C169G U176G, the reverse-splicing fitness was 0.00796.
Turning to C82U A111C A120U C150U C169G, the reverse-splicing fitness came to 0.00449.
Then C82U A111C A120U C150U C169A, with 0.00496.
Turning to C82U A111C A120U C150U C169U, the reverse-splicing fitness was 0.00505.
In the case of C82U A111C A120U U176A, the reverse-splicing fitness was determined as 0.00719.
On to C82U A111C A120U U176G, for which the reverse-splicing fitness was 0.00301.
Next, C82U A111C A120U U176C: 0.0103; C82U A111C A145G C150G C169U: 0.00879.
Then C82U A111C A145G C150G C169G, with 0.00689; and C82U A111C A145G C150G C169A, with 0.0079.
As to C82U A111C A145G C169A, the reverse-splicing fitness was determined as 0.00937.
Then C82U A111C A145G C169G, with 0.00955.
For the variant C82U A111C A145G C169U, the reverse-splicing fitness was 0.012.
As to C82U A111C A120U A145G C169G, the reverse-splicing fitness turned out to be 0.0042.
